T1: CEA (UniProt P06731 35-685, limits assumed)
T1 sequence (looked up): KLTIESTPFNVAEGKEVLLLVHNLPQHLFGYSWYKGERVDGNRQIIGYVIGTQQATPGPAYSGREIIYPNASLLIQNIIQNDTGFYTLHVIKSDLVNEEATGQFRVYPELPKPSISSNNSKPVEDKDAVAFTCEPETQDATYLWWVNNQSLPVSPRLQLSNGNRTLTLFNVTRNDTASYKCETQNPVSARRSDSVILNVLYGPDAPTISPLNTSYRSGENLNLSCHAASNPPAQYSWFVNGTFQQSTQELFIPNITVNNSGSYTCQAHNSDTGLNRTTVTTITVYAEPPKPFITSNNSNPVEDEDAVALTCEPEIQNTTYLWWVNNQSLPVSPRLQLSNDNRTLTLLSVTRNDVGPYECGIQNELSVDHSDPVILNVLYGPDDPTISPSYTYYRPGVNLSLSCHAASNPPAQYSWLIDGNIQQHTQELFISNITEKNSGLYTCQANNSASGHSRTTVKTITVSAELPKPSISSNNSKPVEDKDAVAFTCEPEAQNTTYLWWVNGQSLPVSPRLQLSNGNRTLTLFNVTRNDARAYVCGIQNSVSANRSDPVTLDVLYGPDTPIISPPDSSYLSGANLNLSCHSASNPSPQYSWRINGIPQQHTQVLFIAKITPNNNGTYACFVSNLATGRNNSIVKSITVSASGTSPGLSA

T2: CD19 (UniProt P15391 20-291, limits assumed)
T2 sequence (looked up): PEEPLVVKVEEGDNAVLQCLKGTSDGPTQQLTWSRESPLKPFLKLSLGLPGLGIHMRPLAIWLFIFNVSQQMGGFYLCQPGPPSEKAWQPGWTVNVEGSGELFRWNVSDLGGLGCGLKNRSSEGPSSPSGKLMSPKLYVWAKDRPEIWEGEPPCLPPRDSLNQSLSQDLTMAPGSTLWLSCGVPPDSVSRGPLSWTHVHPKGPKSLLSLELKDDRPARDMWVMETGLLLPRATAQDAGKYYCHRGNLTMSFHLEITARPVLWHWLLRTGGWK

B1: human CD3 (receptor)
chain 1: DGNEEMGGITQTPYKVSISGTTVILTCPQYPGSEILWQHNDKNIGGDEDDKNIGSDEDHLSLKEFSELEQSGYYVCYPRGSKPEDANFYLYLRARVCENCMEMD
chain 2: FKIPIEELEDRVFVNCNTSITWVEGTVGTLLSDITRLDLGKRILDPRGIYRCNGTDIYKDKESTVQVHYRMCQSCVELDPATVA
notes: also called His-tagged human CD3; human CD3 (Acro CDD-H52W1)
B2: SI-20C14 (antibody, human IgG1, kappa, V domains shown)
VH: EVQLVESGGGLVQPGGSLRLSCAASGFSFSGTQYVCWVRQAPGKGLEWIGCIYVDVANTYYATSVKGRFTISRDNSKNTLYLQMNSLRAEDTAVYYCASHDTVCAGCGLDLWGQGTLVTVSS
VL: DIQMTQSPSTLSASVGDRVTITCQASENIYSNLAWYQQKPGKAPKLLIYDASTLASGVPSRFSGSGSGTEFTLTISSLQPDDFATYYCQSTYYNNIIYGAAFGGGTKVEIKR
notes: monoclonal antibody control for the αCEA domain; also called αCEA mAb 656E11; SI-20C14 (anti-CEA 656E11)
B3: SI-75P5 (other)
chain 1: EVQLQESGGGLVQAGDSLSLSCLVSGRSFNSYTMGWFRQAPGKEREFVAAILWSGPTTYYADSVKGRFTISRDNAKNTVYLQMNSLKPEDTAVYYCAAALGVLVLAPGNVYSYWGQGTQVTVSSGGGGSGGGGSEVQLVESGGGLVQPGGSLRLSCAASGFTISTNAMSWVRQAPGKGLEWIGVITGRDITYYASWAKGRFTISRDNSKNTLYLQMNSLRAEDTAVYYCARDGGSSAITSNNIWGQGTLVTVSSASTKGPSVFPLAPSSKSTSGGTAALGCLVKDYFPEPVTVSWNSGALTSGVHTFPAVLQSSGLYSLSSVVTVPSSSLGTQTYICNVNHKPSNTKVDKRVEPKSCDKTHTCPPCPAPEAAGGPSVFLFPPKPKDTLMISRTPEVTCVVVDVSHEDPEVKFNWYVDGVEVHNAKTKPREEQYNSTYRVVSVLTVLHQDWLNGKEYKCAVSNKALPAPIEKTISKAKGQPREPQVYTLPPSRDELTKNQVSLSCAVKGFYPSDIAVEWESNGQPENNYKTTPPVLDSDGSFFLVSKLTVDKSRWQQGNVFSCSVMHEALHNHYTQKSLSLSPGGGGGSGGGGSDVVMTQSPSSVSASVGDRVTITCQASQNIRTYLSWYQQKPGKAPKLLIYAAANLASGVPSRFSGSGSGTDFTLTISDLEPGDAATYYCQSTYLGTDYVGGAFGGGTKLTVLGGGGSGGGGSGGGGSGGGGSEVQLVESGGGLVQPGGSLRLSCTASGFTISSYHMQWVRQAPGKGLEYIGTISSGGNVYYASSARGRFTISRPSSKNTVDLQMNSLRAEDTAVYYCARDSGYSDPMWGQGTLVTVSS
chain 2: QVQLVQSGGGLVQAGGSLSLSCAFSGRTFSMYTMGWFRQAPGKEREFVAANRGRGLSPDIADSVNGRFTISRDNAKNTLYLQMDSLKPEDTAVYYCAADLQYGSSWPQRSSAEYDYWGQGTTVTVSSGGGGSGGGGSDVVMTQSPSTLSASVGDRVTINCQASESISSWLAWYQQKPGKAPKLLIYEASKLASGVPSRFSGSGSGTEFTLTISSLQPDDFATYYCQGYFYFISRTYVNSFGGGTKVEIKRTVAAPSVFIFPPSDEQLKSGTASVVCLLNNFYPREAKVQWKVDNALQSGNSQESVTEQDSKDSTYSLSSTLTLSKADYEKHKVYACEVTHQGLSSPVTKSFNRGECGGDKTHTCPPCPAPEAAGGPSVFLFPPKPKDTLMISRTPEVTCVVVDVSHEDPEVKFNWYVDGVEVHNAKTKPREEQYNSTYRVVSVLTVLHQDWLNGKEYKCAVSNKALPAPIEKTISKAKGQPREPQVYTLPPSRDELTKNQVSLWCLVKGFYPSDIAVEWESNGQPENNYKTTPPVLDSDGSFFLYSKLTVDKSRWQQGNVFSCSVMHEALHNRFTQKSLSLSPGGGGGSGGGGSDIQMTQSPSTLSASVGDRVTITCQASQSISSHLNWYQQKPGKAPKLLIYKASTLASGVPSRFSGSGSGTEFTLTISSLQPDDFATYYCQQGYSWGNVDNVFGGGTKVTVLGGGGSGGGGSGGGGSGGGGSEVQLLESGGGLVQPGGSLSLSCAASGFSFSSGYDMCWVRQAPGKGLEWIACIAAGSAGITYDANWAKGRFTISRDNSKNTLYLQMNSLRAEDTAVYYCARSAFSFDYAMDLWGQGTLVTVSS
notes: penta-miniGNC; D1 αEGFR VHH, D2 αHER3 VHH, D3 αCD3 (Fab), D4 α4-1BB, D5 αPD-L1
B4: SI-49PM1 (other)
chain 1: FLNSLFNQEVQIPLTESYCGPCPKNWICYKNNCYQFFDESKNWYESQASCMSQNASLLKVYSKEDQDLLKLVKSYHWMGLVHIPTNGSWQWEDGSILSPNLLTIIEMQKGDCALYASSFKGYIENCSTPNTYICMQRTVGGGGSGGGGSGGGGSGGGGSFLNSLFNQEVQIPLTESYCGPCPKNWICYKNNCYQFFDESKNWYESQASCMSQNASLLKVYSKEDQDLLKLVKSYHWMGLVHIPTNGSWQWEDGSILSPNLLTIIEMQKGDCALYASSFKGYIENCSTPNTYICMQRTVVDGGGGSGGGGSEVQLVESGGGLVQPGGSLRLSCAASGFTISTNAMSWVRQAPGKGLEWIGVITGRDITYYASWAKGRFTISRDNSKNTLYLQMNSLRAEDTAVYYCARDGGSSAITSNNIWGQGTLVTVSSASTKGPSVFPLAPSSKSTSGGTAALGCLVKDYFPEPVTVSWNSGALTSGVHTFPAVLQSSGLYSLSSVVTVPSSSLGTQTYICNVNHKPSNTKVDKRVEPKSCDKTHTCPPCPAPEAAGGPSVFLFPPKPKDTLMISRTPEVTCVVVDVSHEDPEVKFNWYVDGVEVHNAKTKPREEQYASTYRVVSVLTVLHQDWLNGKEYKCAVSNKALPAPIEKTISKAKGQPREPQVCTLPPSRDELTKNQVSLSCAVKGFYPSDIAVEWESNGQPENNYKTTPPVLDSDGSFFLVSKLTVDKSRWQQGNVFSCSVMHEALHNHYTQKSLSLSPGGGGGSGGGGSRSLVESGGGLVQPGGSLRLSCTASGFTISSYHMQWVRQAPGKCLEYIGTISSGGNVYYASSARGRFTISRPSSKNTVDLQMNSLRAEDTAVYYCARDSGYSDPMWGQGTLVTVSSGGGGSGGGGSGGGGSGGGGSDVVMTQSPSSVSASVGDRVTITCQASQNIRTYLSWYQQKPGKAPKLLIYAAANLASGVPSRFSGSGSGTDFTLTISDLEPGDAATYYCQSTYLGTDYVGGAFGCGTKVEIK
chain 2: ENVLTQSPASLSASPGERVTITCSASSSVSYMHWYQQKPGQAPKLWIYDTSKLASGVPSRFSGSGSGNDHTLTISSMEPEDFATYYCFQGSVYPFTFGQGTKVTVLGGGGSGGGGSGGGGSGGGGSQVTLKESGPGLVQPGQTLSLTCAFSGFSLSTSGMGVGWIRQPPGKGLEWLAHIWWDDDKRYNPALKSRLTISKDTSKNQVYLQMNSLDAEDTAVYYCARMELWSYYFDYWGQGTLVTVSSGGGGSGGGGSDVVMTQSPSTLSASVGDRVTINCQASESISSWLAWYQQKPGKAPKLLIYEASKLASGVPSRFSGSGSGTEFTLTISSLQPDDFATYYCQGYFYFISRTYVNSFGGGTKVEIKRTVAAPSVFIFPPSDEQLKSGTASVVCLLNNFYPREAKVQWKVDNALQSGNSQESVTEQDSKDSTYSLSSTLTLSKADYEKHKVYACEVTHQGLSSPVTKSFNRGECGGDKTHTCPPCPAPEAAGGPSVFLFPPKPKDTLMISRTPEVTCVVVDVSHEDPEVKFNWYVDGVEVHNAKTKPREEQYNSTYRVVSVLTVLHQDWLNGKEYKCAVSNKALPAPIEKTISKAKGQPREPQVYTLPPSRDELTKNQVSLWCLVKGFYPSDIAVEWESNGQPENNYKTTPPVLDSDGSFFLYSKLTVDKSRWQQGNVFSCSVMHEALHNRFTQKSLSLSPGGGGGSGGGGSDIQMTQSPSTLSASVGDRVTITCQASQSISSHLNWYQQKPGKAPKLLIYKASTLASGVPSRFSGSGSGTEFTLTISSLQPDDFATYYCQQGYSWGNVDNVFGGGTKVTVLGGGGSGGGGSGGGGSGGGGSEVQLLESGGGLVQPGGSLSLSCAASGFSFSSGYDMCWVRQAPGKGLEWIACIAAGSAGITYDANWAKGRFTISRDNSKNTLYLQMNSLRAEDTAVYYCARSAFSFDYAMDLWGQGTLVTVSS
notes: control penta-miniGNC; D1 NKG2D (tandem dimer), D2 αCD19, D3 αCD3 (Fab), D4 α4-1BB, D5 αPD-L1

Experiments:
SI-49P9 = target: T3, SI-49P9; assay: BLI (Octet); conditions not stated
T3 construct: penta-miniGNC; D1 αCD3, D2 αCD19, D3 NKG2D receptor dimer, D4 41BBL, D5 αPD-L1
T3 sequence (chain, as listed by the source, chain 1 of 2): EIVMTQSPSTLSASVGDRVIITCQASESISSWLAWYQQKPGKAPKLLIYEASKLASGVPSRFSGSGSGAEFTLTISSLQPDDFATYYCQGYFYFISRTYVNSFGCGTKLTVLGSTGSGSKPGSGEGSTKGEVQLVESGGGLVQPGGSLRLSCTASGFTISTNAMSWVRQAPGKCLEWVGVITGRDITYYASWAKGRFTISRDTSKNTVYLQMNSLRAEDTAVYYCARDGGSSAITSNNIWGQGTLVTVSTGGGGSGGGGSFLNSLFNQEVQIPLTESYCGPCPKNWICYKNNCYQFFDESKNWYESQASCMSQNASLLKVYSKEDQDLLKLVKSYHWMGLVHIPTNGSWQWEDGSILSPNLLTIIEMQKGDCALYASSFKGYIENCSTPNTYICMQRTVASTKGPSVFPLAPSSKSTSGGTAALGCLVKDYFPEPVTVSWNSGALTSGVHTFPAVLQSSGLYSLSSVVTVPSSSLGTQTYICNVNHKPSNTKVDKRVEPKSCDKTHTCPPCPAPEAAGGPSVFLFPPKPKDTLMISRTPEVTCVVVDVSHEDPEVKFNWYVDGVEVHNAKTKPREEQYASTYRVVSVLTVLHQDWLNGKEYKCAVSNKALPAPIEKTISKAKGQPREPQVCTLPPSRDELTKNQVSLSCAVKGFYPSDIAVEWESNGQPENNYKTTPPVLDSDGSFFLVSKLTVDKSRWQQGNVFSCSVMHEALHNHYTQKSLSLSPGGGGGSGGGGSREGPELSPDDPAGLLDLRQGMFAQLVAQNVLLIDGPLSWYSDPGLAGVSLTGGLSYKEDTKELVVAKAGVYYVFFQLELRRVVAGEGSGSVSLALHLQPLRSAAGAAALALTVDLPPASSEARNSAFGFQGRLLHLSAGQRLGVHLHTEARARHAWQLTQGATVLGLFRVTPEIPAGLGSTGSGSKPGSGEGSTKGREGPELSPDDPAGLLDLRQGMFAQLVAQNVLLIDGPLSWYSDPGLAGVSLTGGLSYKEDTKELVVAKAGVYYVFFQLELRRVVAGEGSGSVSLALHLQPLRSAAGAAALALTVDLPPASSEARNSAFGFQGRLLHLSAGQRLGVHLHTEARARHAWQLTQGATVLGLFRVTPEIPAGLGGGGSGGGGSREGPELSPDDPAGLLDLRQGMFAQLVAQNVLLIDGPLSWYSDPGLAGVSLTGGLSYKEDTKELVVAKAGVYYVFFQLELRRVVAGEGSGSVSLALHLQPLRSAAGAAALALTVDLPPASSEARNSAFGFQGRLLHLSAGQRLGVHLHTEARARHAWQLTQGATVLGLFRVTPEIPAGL
T3 sequence (chain, as listed by the source, chain 2 of 2): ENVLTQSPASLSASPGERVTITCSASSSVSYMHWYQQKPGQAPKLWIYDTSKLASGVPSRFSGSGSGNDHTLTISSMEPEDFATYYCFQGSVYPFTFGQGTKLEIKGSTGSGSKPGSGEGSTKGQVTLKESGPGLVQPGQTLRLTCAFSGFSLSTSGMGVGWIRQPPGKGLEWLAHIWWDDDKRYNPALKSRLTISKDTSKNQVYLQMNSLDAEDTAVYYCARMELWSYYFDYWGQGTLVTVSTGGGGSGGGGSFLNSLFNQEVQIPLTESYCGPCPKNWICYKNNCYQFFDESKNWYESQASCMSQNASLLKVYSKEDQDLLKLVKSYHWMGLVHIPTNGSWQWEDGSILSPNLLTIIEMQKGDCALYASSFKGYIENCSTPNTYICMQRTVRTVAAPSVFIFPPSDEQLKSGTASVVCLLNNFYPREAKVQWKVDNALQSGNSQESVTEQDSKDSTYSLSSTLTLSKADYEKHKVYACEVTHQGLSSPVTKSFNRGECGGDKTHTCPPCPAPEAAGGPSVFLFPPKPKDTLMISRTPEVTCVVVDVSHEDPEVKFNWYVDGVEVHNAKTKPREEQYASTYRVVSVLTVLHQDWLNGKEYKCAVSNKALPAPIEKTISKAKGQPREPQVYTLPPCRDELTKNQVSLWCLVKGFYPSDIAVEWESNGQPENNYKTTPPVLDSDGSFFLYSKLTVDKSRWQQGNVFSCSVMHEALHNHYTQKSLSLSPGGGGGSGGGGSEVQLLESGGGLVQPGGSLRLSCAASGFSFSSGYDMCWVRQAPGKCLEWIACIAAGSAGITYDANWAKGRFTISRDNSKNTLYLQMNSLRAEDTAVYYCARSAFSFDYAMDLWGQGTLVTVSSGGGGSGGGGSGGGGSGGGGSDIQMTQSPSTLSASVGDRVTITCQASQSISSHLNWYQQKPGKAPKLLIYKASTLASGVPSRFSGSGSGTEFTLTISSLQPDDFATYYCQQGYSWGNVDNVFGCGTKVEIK

SI-75P4 = target: T4, SI-75P4; assay: BLI (Octet), binder on AHC sensor, 100 nM human antigen, 1:1 fit
T4 construct: penta-miniGNC; D1 αEGFR, D2 αHER3, D3 αCD3 (Fab), D4 41BBL (ligand of the 4-1BB receptor), D5 αPD-L1
T4 sequence (chain, as listed by the source): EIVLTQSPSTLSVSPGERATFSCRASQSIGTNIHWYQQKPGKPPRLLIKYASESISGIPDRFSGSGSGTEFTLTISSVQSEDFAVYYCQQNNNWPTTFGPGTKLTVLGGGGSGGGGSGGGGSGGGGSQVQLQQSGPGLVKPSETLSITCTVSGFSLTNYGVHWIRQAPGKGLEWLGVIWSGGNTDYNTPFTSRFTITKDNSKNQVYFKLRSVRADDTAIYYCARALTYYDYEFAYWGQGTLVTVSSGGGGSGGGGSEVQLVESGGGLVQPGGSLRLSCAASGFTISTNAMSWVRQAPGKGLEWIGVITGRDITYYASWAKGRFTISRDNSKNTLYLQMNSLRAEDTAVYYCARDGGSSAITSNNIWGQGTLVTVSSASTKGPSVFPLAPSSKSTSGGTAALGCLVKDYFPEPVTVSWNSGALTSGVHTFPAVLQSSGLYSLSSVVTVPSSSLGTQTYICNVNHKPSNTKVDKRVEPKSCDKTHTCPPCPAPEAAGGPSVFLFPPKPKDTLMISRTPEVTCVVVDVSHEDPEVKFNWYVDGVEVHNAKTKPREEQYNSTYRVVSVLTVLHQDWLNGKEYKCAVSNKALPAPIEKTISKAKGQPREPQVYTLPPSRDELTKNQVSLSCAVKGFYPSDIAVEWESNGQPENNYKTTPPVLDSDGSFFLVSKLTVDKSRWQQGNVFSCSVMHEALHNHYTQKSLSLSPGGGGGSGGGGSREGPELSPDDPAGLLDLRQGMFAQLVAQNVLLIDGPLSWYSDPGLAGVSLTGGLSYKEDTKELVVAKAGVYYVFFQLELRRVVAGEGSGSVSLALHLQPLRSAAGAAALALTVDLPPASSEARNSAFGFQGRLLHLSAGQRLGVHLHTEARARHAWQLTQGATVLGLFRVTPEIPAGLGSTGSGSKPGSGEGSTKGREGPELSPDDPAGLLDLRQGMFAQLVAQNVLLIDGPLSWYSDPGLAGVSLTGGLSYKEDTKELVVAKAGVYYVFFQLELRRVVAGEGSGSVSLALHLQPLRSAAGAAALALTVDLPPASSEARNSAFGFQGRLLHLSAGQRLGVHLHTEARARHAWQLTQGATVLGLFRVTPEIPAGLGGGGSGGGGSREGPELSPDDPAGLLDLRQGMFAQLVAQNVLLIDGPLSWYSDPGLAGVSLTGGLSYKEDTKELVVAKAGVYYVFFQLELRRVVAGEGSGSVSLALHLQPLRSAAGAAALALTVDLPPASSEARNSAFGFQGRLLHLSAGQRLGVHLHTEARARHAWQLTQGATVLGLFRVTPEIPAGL

CEA = target: T1, CEA; assay: BLI (Octet), unstapled control mAb or Fc-scFv
human CD3 [1] = target: B1; assay: BLI (Octet), binder on AHC sensor, 100 nM human CD3, 1:1 fit
human PD-L1 [2] = target: T5, human PD-L1 (human, UniProt Q9NZQ7 19-238); assay: BLI (Octet), binder on AHC sensor, 20 nM human PD-L1, 1:1 fit
T5 construct: Soluble antigen in Octet; bought; also called human PD-L1 (Acro PD1-H5229)

human EGFR = target: T6, human EGFR (human, UniProt P00533 25-645, limits assumed); assay: BLI (Octet), binder on AHC sensor, 200 nM human EGFR, 1:1 fit
T6 construct: Soluble antigen in Octet; construct not described

human 4-1BB [3] = target: T7, human 4-1BB (human, UniProt Q07011 24-186, limits assumed); assay: BLI (Octet), binder on AHC sensor, 400 nM human 4-1BB, 1:1 fit
T7 construct: Soluble antigen in Octet; construct not described

human CD3 [4] = target: B1; assay: BLI (Octet); conditions not stated
human 4-1BB [5] = target: T7, human 4-1BB; assay: BLI (Octet); conditions not stated
human PD-L1 [6] = target: T5, human PD-L1; assay: BLI (Octet); conditions not stated
CD19 = target: T2, CD19; assay: BLI (Octet); conditions not stated
NKG2D ligand = assay: BLI (Octet); conditions and ligand not stated

Binder: B1
- Kd (SI-49P9): 29.8 nM
- Kd (SI-75P4): 22.7 nM

Binder: B2
- Kd (CEA): < 0.001 nM

Binder: B3
- Kd (human CD3 [1]): 26.1 nM
- Kd (human PD-L1 [2]): 3.25 nM
- Kd (human EGFR): 23.5 nM
- Kd (human 4-1BB [3]): 23.3 nM

Binder: B4
- Kd (human CD3 [4]): 30.2 nM
- Kd (human 4-1BB [5]): 2.74 nM
- Kd (human PD-L1 [6]): 2.23 nM
- Kd (CD19): 5.5 nM
- Kd (NKG2D ligand): 24.5 nM
